Measured values as given in patent US9371393B2, “Class I anti-CEA antibodies and uses thereof” (Immunomedics, Inc., priority 2009, dated 2016).

Tests used:
LS174T cells = test: Spontaneous migration (wound-healing) assay, LS174T; format: cell-based, human; parameters: dose or concentration left out as unconfirmed; settings: antibody, 18 to 24 hours, untreated 38.8±10.9
Method: (§1) Spontaneous migration assay—Glass coverslips were placed in 100×15 mm Petri dishes and UV sterilized overnight. Suspensions of cancer cells (2-4×10^5 cells/mol) were prepared from 80% to 90% confluent monolayers. Cells were plated on each coverslip and incubated for 2 to 5 days to reach 70% to 80% confluence. Two diagonal cell-free paths (“wounds”) were created by dragging a sterile yellow pipette tip across the surface. Monolayers were rinsed several times to remove floating cells and 4 mol of fresh medium were added back in the absence or presence of antibody IgG or Fab′ (10 μg/mol) and incubated at 37° C. After 18 to 24 hours, the medium was removed and coverslips stained with 1 mol Wright-Giemsa for 1 minute. The stain was washed off with distilled water, air-dried, and mounted onto slides with Cytoseal 60. Repopulation of the wound space was evaluated by counting the number of cells that migrated into the wound area in 10 representative fields. Regions of migration were photographed for documentation.

NCA, MA, CEA = test: Specificity for NCA, MA and CEA; format: binding
Description: In 1983, Primus et al. described the first panel of MAbs (NP-1, NP-2, NP-3, and NP-4) that defined NCA-cross-reactive, MA-cross-reactive, and CEA-specific epitopes on the CEA molecule (Primus et al., Cancer Res 1983, 43:686-92). […] The “ion-sensitive” determinant on CEA first was delineated by Hansen et al. (Clin Res 1971, 19:143) using unadsorbed anti-CEA polyclonal serum, and subsequently by Haskell et al. (Cancer Res 1983, 43:3857-64) with MAb. NP-2 and NP-3 react with MA and CEA but not with NCA, whereas NP-4 reacts only with CEA (Primus et al., 1983). […] The present Example describes the production and characterization of a second generation of anti-CEA antibodies, including the MN-15 Class I anti-CEA MAb.
The reagents, formulation, standards, and assay protocol of the sandwich EIA used in these studies have been described elsewhere (Hansen et al., Clin Chem 1989, 35:146-51). All assays were performed with microwells coated with NP-1, except in one experiment, in which microwells were coated with MN-15. […] After the second incubation, the amount of probe bound to CEA was determined by washing out the unbound probe, adding substrate (o-phenylenediamine/hydrogen peroxide), adding acid to stop the reaction, and quantitating the color product by reading the adsorbance at 490 nm. […]

HT-29 cells = test: Spontaneous migration (wound-healing) assay, HT-29; format: cell-based, human; parameters: dose or concentration left out as unconfirmed; settings: antibody, 18 to 24 hours, untreated 14.9±9.1, n=10
Method: as §1

MDA-231 cells = test: Collagen-based invasion assay, MDA-231; format: cell-based, human; settings: MDA-231, expresses neither antigen
Method: Collagen-based invasion assay—The assay was done using CHEMICON® Kit (#ECM551, MILLIPORE®, Billerica, Mass.). Tumor cells at 80% confluence and were serum-starved for 18 to 24 hours before the assay was used. Cells were harvested with 5 mol of 2 mmol/L EDTA/PBS per 100-mm dish and incubated at 37° C. for 5 to 15 minutes. Cells were collected into 10 to 20 mol of quenching medium (serum-free DMEM containing 5% BSA) to inactivate trypsin/EDTA from the harvesting buffer. Cells were pelleted, resuspended in quenching medium (1×10^6 cells/mol), and appropriate antibody Fabs were added to individual cell aliquots. Cell invasion potential was determined as follows. Baseline invasion and invasion in the presence of a chemoattractant (10% FBS) were measured after a 72-hour incubation period at 37° C. in a 5% CO2 incubator. The bottom side of the collagen-coated polycarbonate membrane insert of the invasion chamber was placed in 400 μL of cell stain for 20 minutes at room temperature and washed. The dye was extracted and transferred into a 96-well microtiter plate for colorimetric measurements (A560 nm).

[1] = tested on: MCA38cea (human CEA-transfected line) adhesion to HUVEC; test: Endothelial cell adhesion assay, MCA38cea; format: cell-based, murine; settings: without antibody 11.68±0.77%
Method: Percentage adhesion of various tumor cells with varying amounts of expressed CEACAM5 and CEACAM6 to HUVEC cells in the absence or presence of MN-15 Fab′, MN-3 Fab′, or Ag8 Fab′ control. Cells were labeled with 1 μCi/mL of ^3H-thymidine and added to HUVEC cultures and incubated for 30 minutes at 37° C. Samples were washed thrice with PBS to remove unattached cells. Attached tumor cells were solubilized with 0.1 N NaOH and radioactivity was measured in a B-scintillation counter. The cpm attached/total cpm added (attaching potential) was determined. Results of a typical study are presented. Cell lines used include BT-20 (CEACAM5+/CEACAM6+), MCF-7 (CEACAM5−/CEACAM6+), HT-29 (CEACAM5−/CEACAM6+), Moser (CEACAM5+/CEACAM6−), MCA38cea (CEACAM5+/CEACAM6−), and MCA38 (CEACAM5−/CEACAM6−).
Endothelial cell adhesion assay—Human umbilical vein endothelial cells (HUVEC; Cambrex, San Diego, Calif.) were grown in collagen-coated dishes in EGM Media in a humidified atmosphere with 5% CO2 at 37° C. At passages 2 to 5, cells were plated at a density of 4×10^4 cells per well in 96-well plates 24 hours before the assay. Interleukin-1β (IL-1β, 1 ng/mol) was added 4 hours before the assay. […] Attached cells were solubilized with 0.1 N NaOH and radioactivity was measured in a β scintillation counter. The cpm attached/total cpm added (attaching potential) was determined.

B1: MN-15: murine Class I anti-CEA MAb, IgG1 kappa, binds A1B1 domain of CEACAM5 and CEACAM6 (antibody, V domains shown)
VL: DIQLTQSPAIMSASPGEKVTMTCSASSRVSYIHWYQQKSGTSPKRWIYGTSTLASGVPARFSGSGSGTSYSLTISSMEAEDAATYYCQQWSYNPPTFGAGTKLELKR
VH: EVRLVESGGGLVQGPGSLRLSCAASGFALTDYYMSWVRQSPGKTLEWLGFIANKANGHTTDYSPSVKGRFTISRDNSQTILYLQMNTLRTEDSATYYCARDMGIRWNFDVWGQGTTVTVSS
- migrating cells per field (LS174T cells): 20.3±0.1 cells
- reactivity with NCA, MA and CEA (NCA, MA, CEA): reacted with normal cross-reactive antigen (NCA), MA, and CEA
- number of migrating cells per field (HT-29 cells): 5.5±1.8 cells
- effect on invasion (MDA-231 cells): not reduced

B2: MN-15 Fab′: monovalent Fab′ fragment of murine MN-15 (antibody, V domains shown)
VL: DIQLTQSPAIMSASPGEKVTMTCSASSRVSYIHWYQQKSGTSPKRWIYGTSTLASGVPARFSGSGSGTSYSLTISSMEAEDAATYYCQQWSYNPPTFGAGTKLELKR
VH: EVRLVESGGGLVQGPGSLRLSCAASGFALTDYYMSWVRQSPGKTLEWLGFIANKANGHTTDYSPSVKGRFTISRDNSQTILYLQMNTLRTEDSATYYCARDMGIRWNFDVWGQGTTVTVSS
- migrating cells per field (LS174T cells): 21.6±1.2 cells
- number of migrating cells per field (HT-29 cells): 5.4±0.8 cells
- effect on invasion (MDA-231 cells): not reduced
- endothelial cell binding [1]: 5.53±1.15%
